Reference: the supplement of paper PMC11908140

B1: library; numbered along this chain (parent)
chain: MRKPRAAVGSGHRKQAASQEGRQKHAKNNSQAKPSACDGLARQPEEVVLQASVSSYHLFRDVAEVTAFRGSLLSWYDQEKRDLPWRRRAEDEMDLDRRAYAVWVSEVMLQQTQVATVINYYTGWMQKWPTLQDLASASLEEVNQLWAGLGYYSRGRRLQEGARKVVEELGGHMPRTAETLQQLLPGVGRYTAGAIASIAFGQATGVVDGNVARVLCRVRAIGADPSSTLVSQQLWGLAQQLVDPARPGDFNQAAMELGATVCTPQRPLCSQCPVESLCRARQRVEQEQLLASGSLSGSPDVEECAPNTGQCHLCLPPSEPWDQTLGVVNFPRKASRKPPREESSATCVLEQPGALGAQILLVQRPNSGLLAGLWEFPSVTWEPSEQLQRKALLQELQRWAGPLPATHLRHLGEVVHTFSHIKLTYQVYGLALEGQTPVTTVPPGARWLTQEEFHTAAVSTAMKKVFRVYQGQQPGTCMGSKRSQVSSPCSRKKPRMGQQVLDNFFRSHISTDAHSLNSAAQ

Variants of: B1
Experiment: 8OG:A repair function score (normalized; synonymous = 0, nonsense = -1) (normalized log-likelihood score); higher = more repair activity (WT-like)
Conditions: with 8OG:A DNA repair reporter (GFP) in HEK-293 MUTYH KO cells
Summary of the method: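 MUTYH knockout HEK-293 cells carrying lentiviral MUTYH cDNA NNN codon-scan libraries were grown with 10 pg/ml doxycycline and co-transfected with mCherry and a GFP reporter of 8OG:A repair. Viable mCherry+ cells were sorted at 72 h into GFP+ (repair) and GFP− bins, with three replicates per tile, and tile amplicons were sequenced. Rosace fitness scores for each tile were turned into a normalized repair function score anchored on the synonymous and nonsense distributions. Synonymous medians were set to 0 and nonsense medians to -1, and variants below 300 counts per million at the start were dropped.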

8OG:A repair function score of substitutions, site by site:
S486: E 0.0262, I -0.0359, T 0.0101, H 0.026, K -0.0131, N 0.00666, D 0.00623, P 0.0275, L 0.00981, F 0.00694, Q -0.0168, W 0.0129, A 0.00239, G 0.0224, M -0.00979, C -0.016, R -0.0146, V -0.00598, Y 0.00541
K493: A 0.0129, S 0.0155, N 0.0279, I -0.0174, G 0.0135, F -0.0124, L -0.025, D 0.0108, T 0.0143, W 0.00262, M -0.00762, C -0.00147, V -0.0351, P 0.0123, H 0.0281, Y 0.00504, R -0.00709, E 0.0199, Q -0.107
C489: T 0.00493, Y 0.00164, N 0.0265, W 0.0227, P -0.00598, A -0.00252, M 0.00595, I -0.0718, H 0.0276, K -0.0226, V -0.0255, L 0.0177, S 0.0134, G 0.00751, R -0.0027, Q -0.0376, D 0.013, F -0.0128, E 0.0219
Q484: R 0.00822, M 0.0126, F -0.005, H 0.0028, S -0.0175, P 0.0115, E 0.022, K 0.0117, W 0.00872, Y 0.00945, C -0.0119, A 0.00718, N 0.0201, V -0.0109, L 0.00769, D -0.0184, G 0.00288, T 0.0125, I -0.0366
S487: N 0.0119, E 0.00844, K 0.0147, R 0.0273, F -0.00307, Q -0.00246, T -0.0203, V 0.0175, P -0.0175, W -0.00878, Y 0.00217, C 0.0168, G -0.00491, A 0.0181, H 0.00963, I -0.00284, M 0.0121, D 0.0137, L -5.82e-05
P488: T 0.00629, N 0.00623, V -0.00252, I 0.0151, Q -0.00562, Y -0.0629, G 0.0021, D -0.00371, F -0.042, S 0.00249, K 0.0286, R 0.0168, L 0.00539, C -0.0233, E -0.0239, H 0.0202, M -0.0122, W -0.00344, A -0.0161
K492: E 0.022, M 0.015, L -0.0333, W 0.0127, C 0.0201, F -0.0038, Q 0.0192, A 0.0165, P 0.0192, D -0.0117, S -0.0044, G -0.00555, V -0.0261, T -0.00293, I 0.0148, R -0.0207, Y -0.0316, N -0.00159, H -0.0225
R491: V 0.0088, F 0.0113, T 0.0121, N -0.0106, P -0.0953, W -0.00998, C -0.013, K 0.0262, M 0.0281, Q -0.00572, Y -0.0848, I 0.0211, D 0.0052, L -0.00252, A 0.00371, G 0.00614, S 0.00574, E 0.0286, H 0.0282
Q499: I 0.0124, H 0.0243, P 0.0119, Y -0.045, A -0.02, G -0.0117, L 0.00129, D -0.0217, F -0.00963, W -0.0171, T -0.00713, S 0.00646, C 0.00111, V 0.0113, M 0.00183
